Measured values reported in article PMC7160566.

B1: LexA_(DBDwt)-SehB-WT [Salmonella enterica serotype Typhimurium] / itself (parent)
chain: MRTHRQMDATSAKKIVDTFSDAVKTVPLMGEDRNDNEYRRALALVEFLVDHDDLENPLFELLCARISEYEKHAPEFKALNQHLEKTPPGVSVLRTLMDQYGLKAADLANELGSKSNVSNILNGRRALTVNHIKALTQRFKLPADAFIE
B2: LexA_(DBDwt)-SehB-WT [Salmonella enterica serotype Typhimurium] / LexA_(DBDmut)-SehA [Salmonella enterica serotype Typhimurium] (parent)
chain 1: B1 chain
chain 2: MHVISRKPFNEAMLMYPNHELALTELLNVLEKKTFTQPEEMKRYIPSLDNFKYRDKWWVIDVSGNSLRLISYIDFRLHKIFVKHIVSHAEYDKLTAYYRGNKE

Variants of: B1
Experiment: LexA-based genetic system for homodimerization (sulA-lacZ reporter, E. coli SU101)
Conditions: with itself; LB broth at 37°C to an OD600 nm of 1.0; 1 mM IPTG; parent: 130; read off a plot

Row | Variant | response
1 | chain 1 L48A | 770 U/mg
2 | chain 1 L127A | 170 U/mg
3 | chain 1 Y38A | 600 U/mg
4 | chain 1 I66A | 680 U/mg
5 | chain 1 S113A | 110 U/mg
6 | chain 1 F146A | 110 U/mg
7 | chain 1 L58A | 650 U/mg
8 | chain 1 L135A | 130 U/mg

Variants of: B2
Experiment: LexA-based genetic system for heterodimerization (sulA-lacZ reporter, E. coli SU202)
Conditions: with LexA_(DBDmut)-SehA [Salmonella enterica serotype Typhimurium]; LB broth at 37°C to an OD600 nm of 1.0; 1 mM IPTG; parent: 750; read off a plot

Row | Variant | response
9 | chain 1 I66A | 630 U/mg
10 | chain 1 L48A | 940 U/mg
11 | chain 1 S113A | 760 U/mg
12 | chain 1 L135A | 720 U/mg
13 | chain 1 F146A | 780 U/mg
14 | chain 1 L58A | 820 U/mg
15 | chain 1 L127A | 770 U/mg
16 | chain 1 Y38A | 1100 U/mg
